Test results: paper PMC4778250 (ACS Central Science, 2015)
Values belong to the binder of their own block, whether it stands above or below them.

Key:
[1] = biological target: T1, mouse Class II MHC complex (Mus musculus C57BL/6 (H-2b; I-A b), UniProt P14434;P14483); assay: flow cytometry on cells
[2] = biological target: T1, mouse Class II MHC complex; assay: flow cytometry on cells; remark: listed apart in the source

T1 sequence (P14434 24-256, chain 1 of 2): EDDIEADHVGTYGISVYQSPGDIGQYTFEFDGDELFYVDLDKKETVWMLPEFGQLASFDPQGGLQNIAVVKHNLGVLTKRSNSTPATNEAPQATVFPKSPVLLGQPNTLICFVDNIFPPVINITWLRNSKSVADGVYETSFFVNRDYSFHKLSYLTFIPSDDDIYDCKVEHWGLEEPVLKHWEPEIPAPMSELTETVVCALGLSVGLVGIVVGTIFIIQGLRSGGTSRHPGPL
T1 sequence (P14483 28-265, chain 2 of 2): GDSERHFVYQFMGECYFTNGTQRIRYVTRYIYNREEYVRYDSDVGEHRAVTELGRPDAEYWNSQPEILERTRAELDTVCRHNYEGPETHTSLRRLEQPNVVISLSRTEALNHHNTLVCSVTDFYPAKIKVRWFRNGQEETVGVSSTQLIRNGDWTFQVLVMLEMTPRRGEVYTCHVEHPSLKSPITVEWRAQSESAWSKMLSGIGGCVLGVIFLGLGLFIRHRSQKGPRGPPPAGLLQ

EC50 [1]: 55 to 60 nM
B1: VHH7 (anti-mouse Class II MHC single domain antibody) (VHH)
VHH: QVQLQESGGGLVQAGDSLRLSCAASGRTFSRGVMGWFRRAPGKEREFVAIFSGSSWSGRSTYYSDSVKGRFTISRDNAKNTVYLQMNGLKPEDTAVYYCAAGYPEAYSAYGRESTYDYWGQGTQVTVSS

binding result [2]: no binding
B2: VHH4 (specific for human Class II MHC) (VHH)
VHH: QVQLQESGGGLVQAGGSLRLSCAASGSTLSSYGMGWYRQAPGKQREVVATISATGSISYADSVKGRFTISRDSAKNTMYLQLNSLTPEDTAVYYCNTIYRSTLYWGQGTQVTVSS
